In US20220112286A1:

Experiments:
[1] = target: human antigen (TRBV9 family beta-chain of the human T cell receptor), immobilized on AR2G sensors (human); assay: BLI, OctetRed 96, antigen immobilized on AR2G sensors, antibody in solution, 1:1 global model
[2] = target: membrane TCR belonging to the TRBV9 family on human peripheral blood T lymphocytes (human); assay: flow cytometry sorting of donor T lymphocytes with FITC-labelled MA-043 (100 ng/ml), then sequencing of TCR beta chains of the sorted cells
Sequence of membrane TCR belonging to the TRBV9 family on human peripheral blood T lymphocytes (human) (A0A0B4J1U6 22-114): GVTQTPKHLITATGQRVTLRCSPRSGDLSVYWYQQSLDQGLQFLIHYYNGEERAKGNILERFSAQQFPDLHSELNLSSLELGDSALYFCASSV

Kd [1]: < 1 pM | koff [1]: < 1e-07 s⁻¹ | kon [1]: 329000 M⁻¹ s⁻¹ | enrichment of the sorted library with sequences encoded by the TRBV9 gene segment [2]: 91%
B1: monoclonal antibody MA-043 (antibody, V domains shown)
VH: QVQLVQSGPELKKPGESVKVSCKASGYTFTDYLVHWVRQAPGKGLEWMGWINTYTGTPTYADDFEGRFVFSLDTSASTANLQICSLKNEDTATYYCARSWRRGLRGIGFDYWGQGTLVTVSS
VL: DIQMTQSPYSLSASVGDRVTITCKASKSINKYLAWFQQKPGKPNKLLIYDGSTLQSGVPSRFSGSGSGTDFTLTISSLEPEDFATYYCQQHNEYPPTFGQGTKLEIKR
